Source: the MegaScale stability set (Tsuboyama et al. 2023)

B1: HHH_rd2_0155 (parent)
chain: PPDDERKKAEKAARSGNEEKAREILERLGYSEDEARELAKRLR

Variants of: B1
Test: folding stability dG (cDNA display proteolysis); higher = more stable
Conditions: PBS, room temperature

Folding stability dG [kcal/mol]: each site, then its substitutions
E37: H 1.85; W 2.41; N 1.82; D 1.73; I 2.21; A 2.27; M 2.16; K 2.1; L 2.17; Q 2.1; F 1.98; R 2.34; Y 2.17; S 2.05; P -0.452; T 1.95; C 2.36; V 2.03; G 1.38
R27: A 2.07; L 1.81; P 0.534; M 1.7; D 0.997; N 1.7; H 1.6; W 1.44; Y 1.41; Q 1.89; G 1.89; S 1.94; K 2.14; T 1.47; E 1.1; F 1.39; V 1.01; I 1.28
R36: W 1.68; I 1.57; C 0.956; Q 1.34; H 1.17; F 1.56; S 1.27; D 0.859; P -0.165; K 1.7; A 1.56; Y 1.64; L 1.51; E 1.23; T 1.31; V 1.26; G 0.823; M 1.57; N 1.14
A39: C 2.23; E 0.651; D -0.2; M 1.75; N 0.26; L 2.36; H 0.706; F 1.52; I 2.75; K 0.184; G 0.397
L38: G -0.173; K 0.756; S 0.129; H 0.687; E 1.46; F 1.51; Q 0.725; W 1.49; I 2.04; A 0.925; D -0.841; Y 1.67; N -0.062; T 1.09; V 1.12; R 0.567; M 2.09
E26: R 2.65; N 1.22; A 1.73; H 1.82; P -0.06; K 2.41; L 2.56; M 3.05; Y 1.49; T 1.93; I 2.65; Q 2.39; S 1.72; D 0.509; G 1.5; W 0.866; F 1.47; V 2.61
Y30: E 0.197; S 0.426; I 1.06; D 0.243; L 1.79; R 0.36; K 0.407; F 1.94; V 0.808; Q 0.238; T 0.175; A 0.811; G 0.222; P 0.57; H 1.13; W 1.34; M 1.74
L25: D 0.2; I 0.435; E 0.37; V 0.267; K -0.071; S 0.333; N 0.253; A 0.215; Y 1.87; H -0.026; Q 0.444; R 0.127; G 0.372; F 2.35; P -0.039; T 0.034; M 0.884; W 1.64
A21: V 1.27; M 1.46; R 0.974; H 0.916; P 0.632; Y 1.52; Q 0.924; K 0.641; N 0.934; I 1.68; S 1.23; L 1.81; T 1.08
I24: D 0.375; K 0.671; Y 1.44; L 1.57; E 0.689; W 1.38; T 0.469; N 0.514; R 0.756; A 0.975; Q 0.718; G 0.167; S 0.659; P 0.158; F 1.3; H 1.11; V 0.856; M 1.43
E34: R 1.4; C 1.92; P 0.438; G 0.998; F 1.39; L 1.35; I 1.44; H 1.38; A 1.78; K 1.25; N 1.21; W 1.08; Q 1.81; V 1.39; D 1.87; Y 1.51; S 1.25; T 1.34; M 1.59
E23: S 1.73; I 1.93; Y 1.68; L 2.19; M 2.03; T 1.69; N 1.52; P 0.763; D 1.54; V 1.72; Q 2.18; C 2.35; W 1.83; G 1.4; F 1.61; R 2.21; H 1.85; K 2.12; A 2.06
R22: Q 1.41; K 1.44; G 0.568; H 0.903; D 0.179; V 2.21; E 0.77; F 1.09; L 1.4; S 1; Y 1.33; N 0.74; I 2.21; P 0.374; M 1.88; A 1.58; W 1.13; T 1.27
A35: T 0.991; L 1.02; N 0.635; G 0.605; M 1.02; D 0.38; Q 0.88; Y 0.905; E 0.141; R 0.564; W 1; I 1.42; P -0.246; V 0.99; F 0.989; H 0.728; S 1.25; K 0.591
S31: D 1.36; G 1.44; M 1.03; N 1.66; P 1.46; L 0.779; E 1.03; I 0.504; Q 1.2; Y 0.287; W 0.564; T 2.13; A 1.28; F 0.694; H 1.02; V 0.347; K 1.35; R 1.07
E32: T 1.93; V 2; S 2.08; M 1.78; P 2.48; Y 1.94; W 1.42; Q 1.99; N 1.51; R 1.96; H 1.97; C 1.86; F 1.96; L 1.66; G 1.49; K 2.21; D 1.4; A 2.33; I 1.88
D33: Q 2.09; G 1.59; N 1.79; P 1.55; L 1.85; S 2.13; V 1.71; T 1.92; A 2.25; R 1.79; Y 1.91; I 1.87; K 1.92; F 1.77; W 1.83; M 1.8; H 1.86; E 2.19
G29: E 0.491; D 0.445; F 0.708; H 0.665; S 0.474; A 0.3; T 0.143; R 0.281; K 0.226; I 0.244; L -0.221; N 0.552; M 0.484; Y 0.196; W 0.361; P -0.509; Q 0.091; V 0.455
L28: C 1.85; N 0.822; W 1.47; I 1.7; E 0.577; F 1.2; M 2.29; P 0.261; Q 0.844; Y 0.983; G 0.647; S 0.685; T 0.615; A 1.54; V 0.87; K 0.443; D 0.418; H 0.699; R 0.697
